Measured values: US9555076B2, “Neuregulin based methods and compositions for treating cardiovascular diseases” (Zensun (Shanghai) Science & Technology, Co., Ltd., priority 2002, dated 2017)
Values joined by “and” are separate entries in the source; they are usually repeats but may differ in a detail not shown here. Equal values may be shown once.

What was measured:
[1] = test system: congestive heart failure caused by inferior vena cava constriction in dog; test: Hemodynamic index by catheterization, TIVCC dog; type: in vivo, crossbred dog; settings: for L(−dp/dt) / L(+dp/dt): left ventricle
Method: 7F trifid balloon floating catheter was inserted into the right jugular vein, right auricular pressure, right ventricular pressure, pulmonary pressure and pulmonary wedge pressure were recorded.
6F trifid balloon floating catheter was again inserted into left carotid artery, aorta pressure and left ventricle pressure were recorded with physiology recorder with the following major index: LVPmax, LVPmin, +dp/dt, and −dp/dt.

[2] = test system: acute myocardial injury caused by viral (Coxsackie B3) infection in mice; test: Serum troponin I (cTnI), mice infected with Coxsackie B3 virus; type: in vivo, BALB/C mice
Method: Severity of myocardial injury was evaluated through determination of the amount of serum cTnI release, with advantage of high specificity and high sensitivity when comparing with other traditional index such as CK, LDH and AST. Therefore, serum cTnI content determination was used as an objective index reflecting the severity of myocardial injury.
At the 8th day of viral injection, body weight of the mice was measured and blood withdrawn from the orbit, serum separated, stored in −20° C. refrigerator and serum cTnI determination with luminous reaction carried out.

[3] = test system: acute myocardial injury caused by viral (Coxsackie B3) infection in mice; test: Echocardiography heart function, mice infected with Coxsackie B3 virus; type: in vivo, BALB/C mice
Method: Drug administration of both the testing drug group and the model group was intravenous injection into the tail vein of mice, once every day (qd), for consecutive 5 days, volume of each of the drug administered was 0.2 ml/animal.
0.2 ml of 100×TCID50 CVB3 provided by Zhong Shan Hospital affiliated to Fudan University was injected intra-abdominally and established myocarditis model. Within the following week, the mouse manifested pilo-erection, depilation, emaciation, dullness and death, about half of the tested animals died at the 8th day.
Intravenous injection of the testing drug into the tail vein was carried out the same day of intra-abdominal viral infection in mice, the injection was performed for consecutive 5 days, animal survival rate was monitored, after completion of the experiment, echocardiograph, myocardial pathologic examination, serum troponin determination were carried out.
Chest depilating was performed at the 7th day of viral injection, then the mouse was fixed on special made fixed mount and echocardiograph was carried out with S12 high-frequency probe, the main index included: • EF: ejection fraction of left ventricle, being major index reflecting ejection function of left ventricle; • FS: shortening fraction of left ventricle, index reflecting contraction function of left ventricle; • LVDd: diastolic maximal inner diameter (cm); • LVDs: systolic minimal inner diameter (cm). 7.3.3.2 Determination of Serum Troponin I (cTnI) in Mice
• Normal mice control group, model group and testing drug group were set up; • Normal mice control group (n=10); • Model group (n=20): Prepared buffer solution was injected; • Testing drug group (n=20): 30 μg/kg of rhNRG-1 β was administered for 3, 5 and 7 consecutive days as three difference therapeutic courses with 20 animals assigned for each group; • Placebo control group (n=20): Intra-abdominal injection of non-CVB3 freeze-thaw cellular supernatant, 0.2 ml/animal. 10.2 Dosage Set Up, Preparation of Testing Drug, Route of Drug Administration, Times of Drug Administration, Concentration and Volume of the Testing Drug • rhNRG-1β was diluted with preparation buffer solution (10 mM PB, 0.2% human serum albumin, 5% mannitol to needed concentration; • Three drug administration groups were set up, intravenous injection for consecutive 3-day, 5-day and 7-day, drug volume for each dose was 0.2 ml/animal; • Drug administration of the model group was intravenous injection into the tail vein of mice, once every day (qd), for consecutive 7 days, drug volume for each dose was 0.2 ml/animal. 7.3 Method of the Experiment 7.3.1 Set Up of Acute Viral Myocariditis Animal Model in Mice

[4] = 7.5 μg/kg iv qd × 5, 7th day, (I)
[5] = 7.5 μg/kg iv qd × 5, 7th day, (II)
[6] = 15 μg/kg iv qd × 5, 7th day, (I)
[7] = 15 μg/kg iv qd × 5, 7th day, (I), listed as rhNRG-1β
[8] = 15 μg/kg iv qd × 5, 7th day, (II)
[9] = 30 μg/kg iv qd × 3, 7th day, (I)
[10] = 30 μg/kg iv qd × 3, 7th day, (I), listed as rhNRG-1β
[11] = 30 μg/kg iv qd × 3, 7th day, (II)
[12] = 30 μg/kg iv qd × 5, 7th day, (I)
[13] = 30 μg/kg iv qd × 5, 7th day, (I), listed as hNRG-1β
[14] = 30 μg/kg iv qd × 5, 7th day, (II)
[15] = 30 μg/kg iv qd × 5, 7th day, Example 5 (I)
[16] = 30 μg/kg iv qd × 5, 7th day, Example 5 (I), listed as rhNRG-1β
[17] = 30 μg/kg iv qd × 5, 7th day, Example 5 (II)
[18] = 30 μg/kg iv qd × 7, 7th day, (I)
[19] = 30 μg/kg iv qd × 7, 7th day, (I), listed as rhNRG-1β
[20] = 30 μg/kg iv qd × 7, 7th day, (II)

B1: rhNRG-1 β: Recombinant human neuregulin fragment of 61 amino acid (SEQ ID NO:4), 3 disulfide bonds, expressed in E. coli (protein, listed as Homo sapiens)
chain: SHLVKCAEKEKTFCVNGGECFMVKDLSNPSRYLCKCPNEFTGDRCQNYVMASFYKAEELYQ
modifications: disulfide (positions not given here)
[1]; 1 μg/kg iv daily 5 days
  LVPmax: 102.12 ± 12.42 mmHg
  LVPmin: 0.59 ± 3.05 mmHg
  L(−dp/dt): −2933 ± 613.44 mmHg/s
[1]; 3 μg/kg iv daily 5 days
  LVPmax: 114.68 ± 17.12 mmHg
  LVPmin: −1.12 ± 1.34 mmHg
  L(+dp/dt): 5000.45 ± 1535.88 mmHg/s
  L(−dp/dt): −3249.52 ± 973.32 mmHg/s
[1]; 10 μg/kg iv daily 5 days
  LVPmax: 122.87 ± 17.37 mmHg
  LVPmin: −0.69 ± 1.05 mmHg
  L(+dp/dt): 5104.88 ± 1332.05 mmHg/s
  L(−dp/dt): −3658.34 ± 1390.97 mmHg/s
[1]; 1, 3 and 10 μg/kg iv daily 5 days
  effect on the right ventricle: not apparent
[2]; 7.5 μg/kg iv qd × 5, 8th day, (I)
  cTnI Mean ± SD: 29.05 ± 17.06 ng/mL
[2]; 7.5 μg/kg iv qd × 5, 8th day, (I), listed as rhNRG-1β
  cTnI Mean ± SD: 29.05 ± 17.06 ng/mL
[2]; 7.5 μg/kg iv qd × 5, 8th day, (II)
  cTnI Mean ± SD: 26.85 ± 15.20 ng/mL
[2]; 15 μg/kg iv qd × 5, 8th day, (I)
  cTnI Mean ± SD: 19.43 ± 10.76 ng/mL
[2]; 15 μg/kg iv qd × 5, 8th day, (I), listed as rhNRG-1β
  cTnI Mean ± SD: 19.43 ± 10.76 ng/mL
[2]; 15 μg/kg iv qd × 5, 8th day, (II)
  cTnI Mean ± SD: 15.59 ± 14.94 ng/mL
[2]; 30 μg/kg iv qd × 3, (I)
  cTnI Mean ± SD: 13.37 ± 9.53 ng/mL
[2]; 30 μg/kg iv qd × 3, (II)
  cTnI Mean ± SD: 12.32 ± 18.36 ng/mL
[2]; 30 μg/kg iv qd × 5, 8th day, (I)
  cTnI Mean ± SD: 7.98 ± 6.07 ng/mL
[2]; 30 μg/kg iv qd × 5, 8th day, (I), listed as rhNRG-1β
  cTnI Mean ± SD: 7.98 ± 6.07 ng/mL
[2]; 30 μg/kg iv qd × 5, 8th day, (II)
  cTnI Mean ± SD: 0.54 ± 0.53 ng/mL
[2]; 30 μg/kg iv qd × 5, Example 5 (I)
  cTnI Mean ± SD: 1.06 ± 1.32 ng/mL
[2]; 30 μg/kg iv qd × 5, Example 5 (I), listed as rhNRG-1β
  cTnI Mean ± SD: 1.06 ± 1.32 ng/mL
[2]; 30 μg/kg iv qd × 5, Example 5 (II)
  cTnI Mean ± SD: 0.44 ± 0.24 ng/mL
[2]; 30 μg/kg iv qd × 7, (I)
  cTnI Mean ± SD: 1.05 ± 1.2 ng/mL and 1.05 ± 1.20 ng/mL
[2]; 30 μg/kg iv qd × 7, (I), listed as rhNRG-1β
  cTnI Mean ± SD: 1.05 ± 1.20 ng/mL
[2]; 30 μg/kg iv qd × 7, (II)
  cTnI Mean ± SD: 0.51 ± 0.28 ng/mL
[3]; [4]
  EF: 78.1 ± 9.3%
  FS: 41.7 ± 9.6%
  LVDd: 0.191 ± 0.012 cm
  LVDs: 0.114 ± 0.028 cm
[3]; [5]
  EF: 71.9 ± 6.69%
  FS: 35.7 ± 5.60%
  LVDd: 0.213 ± 0.009 cm
  LVDs: 0.133 ± 0.015 cm
[3]; [6]
  EF: 86.0±2.9%
  FS: 50.7±4.3%
  LVDd: 0.189±0.008 cm
  LVDs: 0.099±0.027 cm
[3]; [7]
  EF: 81.3 ± 6.28 %
  FS: 44.5 ± 8.27 %
  LVDd: 0.189 ± 0.008 cm
  LVDs: 0.099 ± 0.027 cm
[3]; [8]
  EF: 81.6 ± 4.59 %
  FS: 44.9 ± 5.68 %
  LVDd: 0.201 ± 0.011 cm
  LVDs: 0.114 ± 0.018 cm
[3]; [9]
  EF: 73.1±6.6%
  FS: 36.7 ± 4.7%
  LVDd: 0.194 ± 0.008 cm
  LVDs: 0.123±0.012 cm
[3]; [10]
  EF: 73.1 ± 6.6%
  LVDs: 0.123 ± 0.012 cm
[3]; [11]
  EF: 81.0 ± 5.4%
  FS: 43.9 ± 5.1%
  LVDd: 0.211 ± 0.016 cm
  LVDs: 0.121 ± 0.016 cm
[3]; [12]
  EF: 90.2±2.5%
  FS: 55.7±2.1%
  LVDd: 0.187±0.006 cm
  LVDs: 0.085±0.009 cm
[3]; [13]
  EF: 90.2 ± 2.5 %
  FS: 55.7 ± 2.1 %
  LVDd: 0.187 ± 0.006 cm
  LVDs: 0.085 ± 0.009 cm
[3]; [14]
  EF: 87.7 ± 3.76 %
  FS: 51.8 ± 5.24 %
  LVDd: 0.196 ± 0.011 cm
  LVDs: 0.094 ± 0.011 cm
[3]; [15]
  EF: 86.8±4.4%
  FS: 51.9±5.8%
  LVDd: 0.187 ± 0.006 cm
  LVDs: 0.090±0.011 cm
[3]; [16]
  EF: 86.8 ± 4.4%
  FS: 51.9 ± 5.8%
  LVDs: 0.090 ± 0.011 cm
[3]; [17]
  EF: 85.8 ± 4.205%
  FS: 50.0 ± 6.350%
  LVDd: 0.199 ± 0.000 cm
  LVDs: 0.100 ± 0.014 cm
[3]; [18]
  EF: 87.0±3.3%
  FS: 51.8±5.1%
  LVDd: 0.192 ± 0.008 cm
  LVDs: 0.092±0.012 cm
[3]; [19]
  EF: 87.0 ± 3.3%
  FS: 51.8 ± 5.1%
  LVDs: 0.092 ± 0.012 cm
[3]; [20]
  EF: 87.283 ± 1.694%
  FS: 52.367 ± 1.847%
  LVDd: 0.194 ± 0.017 cm
  LVDs: 0.092 ± 0.008 cm
